Measurements: patent US20230203111A1 (published 2023)
Numbering of substitutions follows the chain as printed.

B1: HFn-Mt-3 (ligand)
chain: TTASTSQVRQNYHQDSEAAINRQINLELYASYVYLSMSYYFDRDDVALKNFAKYFLHQSHEEREHAEKLMKLQNQRGGRICLQDIKKPDSDDWESGLNAMESALHLEKNVNQSLLELHKLATDKNDPHLSDFIETHYLNEQVKAIKELGDHVTNLRKMGAPESGLAEYLFDKHTLGDSDNES
notes: cage protein; also called HFn-Mut-3
B2: HFn-Mt-5 (ligand)
chain: B1 chain with C81F, Q83C
notes: cage protein; also called HFn-Mut-5

Biological target: T1, TFR1 (human source) (human, UniProt P02786 89-760, limits assumed)
T1 construct: Soluble reagent added at 2 µg/mL to ferritin-coated ELISA plates; also called Tfr1 receptor; Tfr-1 receptor
Assay: ELISA, ferritin coated, human TFR1 2 µg/mL

T1 sequence (P02786 89-760 limits assumed): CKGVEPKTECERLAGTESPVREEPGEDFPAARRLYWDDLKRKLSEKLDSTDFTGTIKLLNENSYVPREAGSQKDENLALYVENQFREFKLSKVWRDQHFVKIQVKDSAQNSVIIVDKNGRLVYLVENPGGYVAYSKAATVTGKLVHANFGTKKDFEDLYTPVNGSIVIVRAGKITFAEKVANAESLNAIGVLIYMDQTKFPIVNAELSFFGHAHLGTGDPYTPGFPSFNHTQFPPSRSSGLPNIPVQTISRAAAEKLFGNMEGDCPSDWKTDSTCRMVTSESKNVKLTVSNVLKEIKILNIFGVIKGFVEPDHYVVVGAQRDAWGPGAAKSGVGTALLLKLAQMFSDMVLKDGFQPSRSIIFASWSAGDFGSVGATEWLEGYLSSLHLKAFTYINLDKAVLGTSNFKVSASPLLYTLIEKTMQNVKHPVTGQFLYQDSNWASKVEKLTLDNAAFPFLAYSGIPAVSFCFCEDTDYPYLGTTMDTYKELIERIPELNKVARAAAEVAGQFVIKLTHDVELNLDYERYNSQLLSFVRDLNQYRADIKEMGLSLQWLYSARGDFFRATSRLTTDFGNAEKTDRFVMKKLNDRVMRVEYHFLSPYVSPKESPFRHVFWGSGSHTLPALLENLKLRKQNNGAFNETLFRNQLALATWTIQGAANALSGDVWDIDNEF

Row | Binder | binding result
1 | B1 | no binding
2 | B2 | no binding
